# Measured values taken from publication PMC4541722.
# How the values were obtained:
# [1] = tested on: Nc1ccn([C@@H]2O[C@H](CO)[C@@H](O)C2(F)F)c(=O)n1; assay: purified protein; format: biochemical, Mesomycoplasma hyorhinis; conditions: PBS, 37 °C, 10 min, 4 nM enzyme, fit up to 30 mM substrate, second KM at very high concentrations not determined
# [2] = tested on: Nc1ccn([C@H]2C[C@H](O)[C@@H](CO)O2)c(=O)n1; assay: purified protein; format: biochemical, Mesomycoplasma hyorhinis; conditions: PBS, 37 °C, 10 min, 4 nM enzyme
substance,measurement,setting,value
CDAHyor (M. hyorhinis cytidine deaminase) (Mesomycoplasma hyorhinis MCLD),Km,[1],9.064 ± 1.487 mM
same,kcat,[1],105 ± 7 s⁻¹
same,kcat/Km,[1],12000 M⁻¹ s⁻¹
same,Km,[2],2.586 ± 0.114 mM
same,kcat,[2],127 ± 2 s⁻¹
same,kcat/Km,[2],49000 M⁻¹ s⁻¹
